Changes are numbered by the printed parent chain.
T1: human CD73 ecto-domain recombinant protein (huCD73) (human, UniProt P21589 27-547)
T1 construct: also called soluble huCD73; soluble recombinant CD73
T1 sequence: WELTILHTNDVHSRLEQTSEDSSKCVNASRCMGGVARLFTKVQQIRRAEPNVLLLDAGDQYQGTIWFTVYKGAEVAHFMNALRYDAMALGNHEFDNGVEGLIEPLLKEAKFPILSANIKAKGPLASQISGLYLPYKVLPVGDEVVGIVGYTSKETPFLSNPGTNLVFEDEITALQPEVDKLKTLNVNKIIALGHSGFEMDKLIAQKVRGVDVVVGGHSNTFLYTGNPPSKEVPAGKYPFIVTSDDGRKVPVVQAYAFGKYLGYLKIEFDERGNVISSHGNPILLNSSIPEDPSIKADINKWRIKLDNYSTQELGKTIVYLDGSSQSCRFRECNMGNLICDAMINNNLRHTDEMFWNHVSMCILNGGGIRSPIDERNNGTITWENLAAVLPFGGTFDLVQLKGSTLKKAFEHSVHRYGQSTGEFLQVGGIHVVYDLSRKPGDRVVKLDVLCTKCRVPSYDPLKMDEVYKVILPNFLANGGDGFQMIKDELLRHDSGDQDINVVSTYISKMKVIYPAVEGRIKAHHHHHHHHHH

T2: cynomolgus CD73 on the cell surface (293T/17-cynoCD73 cells) (cynomolgus (Macaca fascicularis), UniProt P21589 27-547 (human entry))
T2 chain: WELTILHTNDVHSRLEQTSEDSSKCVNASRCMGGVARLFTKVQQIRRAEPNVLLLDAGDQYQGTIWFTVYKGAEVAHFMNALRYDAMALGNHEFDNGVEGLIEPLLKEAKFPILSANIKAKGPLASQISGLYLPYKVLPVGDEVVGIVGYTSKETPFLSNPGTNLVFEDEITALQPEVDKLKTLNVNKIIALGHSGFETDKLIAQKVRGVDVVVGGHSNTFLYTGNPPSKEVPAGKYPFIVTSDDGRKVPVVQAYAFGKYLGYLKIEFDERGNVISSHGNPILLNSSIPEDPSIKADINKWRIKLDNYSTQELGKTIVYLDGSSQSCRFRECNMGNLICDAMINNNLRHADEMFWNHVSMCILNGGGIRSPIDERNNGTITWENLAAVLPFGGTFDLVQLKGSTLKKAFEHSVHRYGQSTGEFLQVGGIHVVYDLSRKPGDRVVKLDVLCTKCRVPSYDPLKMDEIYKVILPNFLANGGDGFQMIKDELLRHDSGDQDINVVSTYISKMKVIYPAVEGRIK

B1: JB94Chi (antibody, human IgG1, kappa)
heavy: not shown
light: DIRMTQSPSSMYASLGERVTITCKASQDINTYLSWFQQKPGKSPKSLIYRSNILVDGVPSRFSGSGSGQDYSLTISSLEYEDMGIYYCLQYDDFPYTFGGGTKLEIKRTVAAPSVFIFPPSDEQLKSGTASVVCLLNNFYPREAKVQWKVDNALQSGNSQESVTEQDSKDSTYSLSSTLTLSKADYEKHKVYACEVTHQGLSSPVTKSFNRGEC
notes: Chimeric antibody: mouse Fv of 94A12G11F with human IgG1 and human kappa constant regions
B2: JB24H3L2 (antibody, human IgG1, kappa, V domains shown)
VH: QVQLVQSGAEVKKPGASVKMSCKASGYTFTDYNMHWVKQSHGKSLEWIGYIKPHNAGTTYNPKFEGRATLTVDTSASTAYMELRSLRSEDTAVYYCVRSDFLYWYFDVWGQGTTVTVSS
VL: DIQMTQSPSSLSASVGDRVTITCTASSSVSSSYLHWYQQKPGSAPKLWIYSTSNLASGVPSRFSGSGSGTDYTLTISSLQPEDFATYYCHQYHRSPLTFGAGTKLEIKR
notes: Humanized antibody of JB24Chi, human IgG1 / kappa
B3: JB24H3L3 (antibody, human IgG1, kappa, V domains shown)
VH: B2 VH
VL: B2 VL with Q3V, A44S, S61G
notes: as for B2
B4: JB94H2L1 (antibody, human IgG1, kappa, V domains shown)
VH: QVQLVQSGAEVKKPGASVKVSCKASGYTFTSYWMHWVRQRPGQGLEWMGYINPSSGYTKSNQKFKDRVTLTADTSTSTAYMELSSLRSEDTAVYYCGRWLLSAWFAYWGQGTLVTVSS
VL: DIQMTQSPSSLSASVGDRVTITCKASQDINTYLSWFQQKPGKAPKSLIYRSNILVDGVPSRFSGSGSGQDFTLTISSLQPEDFAIYYCLQYDDFPYTFGQGTKLEIKR
notes: Humanized antibody of the 94 clone, human IgG1 / kappa
B5: JB94H3L3 (antibody, human IgG1, kappa, V domains shown)
VH: B4 VH with V5Q, V20L, M48I, V68A
VL: B4 VL with A43S, F71Y
notes: as for B4
B6: 66F2A8D6 (antibody, mouse IgG1, kappa)
heavy: QVHLQQSGAELAKPGASVNLSCKASGYAFTSYWMHWVKQRPGQGLEWIGYINPSSGLAKYNQKFKDKATLTTDKSSNTAYMQLSSLTYDDSAVYYCGRWLLSAWFAYWGQGTLVTVSAAKTTPPSVYPLAPGSAAQTNSMVTLGCLVKGYFPEPVTVTWNSGSLSSGVHTFPAVLQSDLYTLSSSVTVPSSTWPSETVTCNVAHPASSTKVDKKIVPRDCGCKPCICTVPEVSSVFIFPPKPKDVLTITLTPKVTCVVVDISKDDPEVQFSWFVDDVEVHTAQTQPREEQFNSTFRSVSELPIMHQDWLNGKEFKCRVNSAAFPAPIEKTISKTKGRPKAPQVYTIPPPKEQMAKDKVSLTCMITDFFPEDITVEWQWNGQPAENYKNTQPIMDTDGSYFVYSKLNVQKSNWEAGNTFTCSVLHEGLHNHHTEKSLSHSPGK
light: DIKMTQSPSSIYASLGERVTITCKASQGINTYLSWFQQKPGKSPKTLIYRANILVDGVPSRFSGSGSGQDYSLTINSLEYEDMGIYYCLQYDEFPYTFGGGTKLEIKRADAAPTVSIFPPSSEQLTSGGASVVCFLNNFYPKDINVKWKIDGSERQNGVLNSWTDQDSKDSTYSMSSTLTLTKDEYERHNSYTCEATHKTSTSPIVKSFNRNEC
notes: Hybridoma antibody, mouse IgG1 / mouse kappa full chains
B7: 94H1L3 hIgG2 (antibody)
heavy: QVQLVQSGAEVKKPGASVKVSCKASGYTFTSYWMHWVRQAPGQGLEWMGYINPSSGYTKSNQKFKDRVTMTADTSTSTAYMELSSLRSEDTAVYYCGRWLLSAWFAYWGQGTLVTVSSASTKGPSVFPLAPCSRSTSESTAALGCLVKDYFPEPVTVSWNSGALTSGVHTFPAVLQSSGLYSLSSVVTVPSSNFGTQTYTCNVDHKPSNTKVDKTVERKCCVECPPCPAPPVAGPSVFLFPPKPKDTLMISRTPEVTCVVVDVSHEDPEVQFNWYVDGVEVHNAKTKPREEQFNSTFRVVSVLTVVHQDWLNGKEYKCKVSNKGLPAPIEKTISKTKGQPREPQVYTLPPSREEMTKNQVSLTCLVKGFYPSDIAVEWESNGQPENNYKTTPPMLDSDGSFFLYSKLTVDKSRWQQGNVFSCSVMHEALHNHYTQKSLSLSPGK
light: DIQMTQSPSSLSASVGDRVTITCKASQDINTYLSWFQQKPGKSPKSLIYRSNILVDGVPSRFSGSGSGQDYTLTISSLQPEDFAIYYCLQYDDFPYTFGQGTKLEIKRTVAAPSVFIFPPSDEQLKSGTASVVCLLNNFYPREAKVQWKVDNALQSGNSQESVTEQDSKDSTYSLSSTLTLSKADYEKHKVYACEVTHQGLSSPVTKSFNRGEC

Each binder was assayed against T1, human CD73 ecto-domain recombinant … (assay: indirect ELISA, coated huCD73 recombinant protein).
Procedure: (§1) Incubated with gradient diluted 100 μL/well of antibodies for 1 h at room temperature. After the plates were washed 3 times with 200 ul/well of PBST, 100 ul of diluted HRP-labeled secondary antibody at a ratio of 1:5000 was added to each well, and the plates were incubated for 1 hour at room temperature. The plates were washed 3 times with 200 ul/well of PBST, 100 ul of TMB was added to each well and reacted for 5 minutes at room temperature in the dark. […] read the OD value. The affinity of humanized antibodies and parent antibodies were similar to the antigen (table 9).
B1 gave an EC50 of 0.0357 nM. B2 gave an EC50 of 0.0208 nM. In the case of B3, the EC50 is reported as 0.0228 nM. In the case of B4, the EC50 is reported as 0.0252 nM. In the case of B5, the EC50 is reported as 0.0292 nM.

The binders below were run against T1, human CD73 ecto-domain recombinant … (assay: indirect ELISA, coated huCD73 recombinant protein, curve fit).
Procedure: as §1
Work on B1 yielded a Bottom of 152 OD value and a Top of 8470 OD value. B2 was tested, and the Bottom was 89.1 OD value and the Top was 7140 OD value. For B3, the Bottom was 9.8 OD value and the Top was 7310 OD value. Work on B4 yielded a Bottom of -142 OD value and a Top of 7110 OD value. B5 showed a Bottom of 320 OD value and a Top of 8900 OD value.

Biological target: T2, cynomolgus CD73 on the cell surface …
Test: cell-based or functional assay
With B6 the “IC50, blockade of 5'exonuclease activity on 293T/17-Cyno CD73 cells” value (“IC50, blockade of 5'exonuclease activity” below) was 0.077 nM.

These binders were tested against T1, human CD73 ecto-domain recombinant … (assay: cell-based or functional assay).
For B6, the “Bottom (lower plateau of the fitted curve), blockade of soluble huCD73 enzyme activity (AMP hydrolysis, luciferase/CellTiter-Glo)” value was 6.36, the “IC50, blockade of soluble huCD73 enzyme activity (AMP hydrolysis, luciferase/CellTiter-Glo)” value was 1.96 nM and the “Top (upper plateau of the fitted curve), blockade of soluble huCD73 enzyme activity (AMP hydrolysis, luciferase/CellTiter-Glo)” value was 86.1.

Biological target: T2, cynomolgus CD73 on the cell surface …
Test: cell-based or functional assay
Remark: another data set of the same source
B1 was tested, and the “IC50, blockade of 5'exonuclease activity” value was 0.001 nM. For B2, the “IC50, blockade of 5'exonuclease activity” value was 0.004 nM. For B3, the “IC50, blockade of 5'exonuclease activity” value was 0.003 nM. With B4 the “IC50, blockade of 5'exonuclease activity” value was 0.0001 nM. In the case of B5, the “IC50, blockade of 5'exonuclease activity” value is reported as 0.002 nM. For B7, the “IC50, blockade of 5'exonuclease activity” value was 0.021 nM.

These binders were tested against T1, human CD73 ecto-domain recombinant … (assay: indirect ELISA, coated soluble huCD73).
Procedure: (§2) The indirect ELISA method was applied to evaluate the binding ability of each positive clone to soluble huCD73 protein. Soluble huCD73 was coated, and gradient diluted samples were incubated, then HPR-labeled secondary antibody was added, finally TMB was added to develop the color, and OD450 was read after termination.
(§3) 1 ug/ml of recombinant CD73 protein was coated on ELISA plates (Coning), incubate overnight at 4° C. The next day, wash 5 times in PBS and blocked with 200 ul/well 2% skimmed milk, a certain dose range of CD73 antibodies were incubated for 1 h at room temperature. Wash 5 times with PBST washing buffer (PBS, 0.05% Tween 20), add HRP-conjugated goat anti-mouse IgG (H+L) (Promega) and incubate at room temperature for 1 h to detect bound anti-CD73 antibodies; wash the plate 5 times again and add TMB (Life Technologies) for color development for 5 to 10 min; finally the reaction was stopped by adding 1N HCl, and the OD value was measured at 450 nm. GraphPad Prism software was used to generate data graphs and statistical affinity data.
For B6, the EC50 was 0.153 nM.

What follows are binders tested against T1, human CD73 ecto-domain recombinant … (assay: indirect ELISA, plate coated with 1 ug/ml huCD73 recombinant protein, HRP-labelled secondary antibody, RFU).
Procedure: as §1
In the case of B1, the “EC50 (read off the curve)” value is reported as about 0.03 µg/mL. B2 was tested, and the “EC50 (read off the curve)” value was about 0.2 µg/mL. With B3 the “EC50 (read off the curve)” value was about 0.2 µg/mL. B4 was tested, and the “EC50 (read off the curve)” value was about 0.02 µg/mL. B5 was tested, and the “EC50 (read off the curve)” value was about 0.03 µg/mL.

Biological target: T2, cynomolgus CD73 on the cell surface …
Test: flow cytometry on 293T/17-Cyno CD73 cells
Procedure: (§4) 2×10⁶ cells resuspended in PBS buffer were distributed into 96-well plates and incubated with gradient diluted humanized antibodies for 1 h at refrigerator 4° C. or on ice, then the cells was centrifuged for 3 min 1500 rpm at 4° C. and washed three times by PBS, and diluted APC-labeled goat anti-human polyclonal antibody (Biolegend) were incubated for 30 min at refrigerator 4° C. Finally, the cells were washed three times with PBS as described above and analyzed on MACSQuant flow cytometer. GraphPad Prism software was used to generate data graphs and statistical affinity data.
(§5) The samples to be tested were incubated for 1 h at 4° C. after gradient dilution. After washing, 100 μL of APC-labeled secondary antibody was added to each well and incubated for 30 min. After washing, detecting on machine and the fluorescence value was read. GraphPad Prism software was used to generate data graphs and statistical affinity data.
B1 showed an EC50 of 8.59 nM. Work on B2 yielded an EC50 of 3.59 nM. B3 showed an EC50 of 3.73 nM. B4 gave an EC50 of 7.97 nM. In the case of B5, the EC50 is reported as 9.82 nM.

These binders were tested against T1, human CD73 ecto-domain recombinant … (assay: indirect ELISA, coated soluble huCD73, HRP-labelled secondary antibody, OD450).
Procedure: as §2, §3
B6 was tested, and the “EC50 (read off the curve)” value was about 0.2 nM.

Biological target: T2, cynomolgus CD73 on the cell surface …
Test: flow cytometry on 293T/17-Cyno CD73 cells, curve fit
Procedure: as §4, §5
B1 was tested, and the Bottom was 1.45 fluorescence and the Top was 124 fluorescence. Work on B2 yielded a Bottom of 0.509 fluorescence and a Top of 48.7 fluorescence. B3 gave a Bottom of 0.917 fluorescence and a Top of 34 fluorescence. With B4 the Bottom was 0.22 fluorescence and the Top was 82 fluorescence. In the case of B5, the Bottom is reported as 1.4 fluorescence and the Top is reported as 125 fluorescence.

The binders below were run against T1, human CD73 ecto-domain recombinant … (assay: indirect ELISA, coated soluble huCD73, curve fit).
Procedure: as §2, §3
With B6 the Bottom was 0.165 OD450 and the Top was 3.11 OD450.

Reference: patent publication US20220064322A1 (JACOBIO PHARMACEUTICALS, published 2022)
